For the test, the target named is 26S proteasome purified from rabbit muscle (rabbit (endogenous in muscle)).

A value given as a limit tells only on which side of the number the result lay.

For the substance “polyubiquitinated E6AP (from UniProt P0CG47 1-76)”, the hydrolysis of suc-GGL-amc by rabbit 26S proteasomes with ubiquitinated E6AP was less than 4 fold.

(Values after article PMC2796264.)
